Laboratory results from US20210230265A1 (Sanofi, published 2021).

Biological target: T1, interleukin-33 (IL-33) (human, UniProt O95760 95-270, limits assumed)
T1 construct: This is endogenous circulating IL-33 in treated patients, not a recombinant construct; also called total IL-33
T1 sequence (looked up): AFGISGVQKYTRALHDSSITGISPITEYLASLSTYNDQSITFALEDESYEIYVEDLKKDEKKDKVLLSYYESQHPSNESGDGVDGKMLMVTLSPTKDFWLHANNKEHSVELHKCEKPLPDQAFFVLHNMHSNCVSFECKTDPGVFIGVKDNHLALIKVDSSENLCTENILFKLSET
Assay: Target mediated drug disposition (TMDD) model of total IL-33 vs. time in serum, driven by PopPK-predicted PK, all studies; an in vivo model estimate, not a direct binding assay; in vivo TMDD model estimate from clinical total IL-33 data, not a direct binding assay
Protocol: Total TL-33 vs. time was modelled using a target mediated drug disposition (TMDD) approach. All studies were included in the analysis. PopPK predicted PK for each individual was used to drive the total IL-33 dynamics. […] (This was based on the baseline IL-33 assumption of ½ lower limit of quantification (LLOQ).) Based on the computed threshold, 300 mg Q2W, 300 mg Q4W, and 300 mg Q8W may be able to meet the threshold target for achieving 90% target engagement.

Kd: 7.01 nM
B1: SAR440340 (antibody, human IgG4 S228P, kappa, V domains shown)
VH: VQLVESGGNLEQPGGSLRLSCTASGFTFSRSAMNWVRRAPGKGLEWVSGISGSGGRTYYADSVKGRFTISRDNSKNTLYLQMNSLSAEDTAAYYCAKDSYTTSWYGGMDVWGHGTTVTVSS
VL: IQMTQSPSSVSASVGDRVTITCRASQGIFSWLAWYQQKPGKAPKLLIYAASSLQSGVPSRFSGSGSGTDFTLTISSLQPEDFAIYYCQQANSVPITFGQGTRLEIKR
notes: Human anti-IL-33 antibody; also called REGN3500; itepekimab
